In patent WO2006003179A2 (dated 2006):

Legend:
[1] = target: recombinant soluble KIR2DL3 (entire extracellular domain, produced in E. coli) (human) (UniProt P43628); assay: Biacore, immobilized KIR2DL3; second Ab GL183 injected after first Ab 1-4F1
[2] = target: recombinant soluble KIR2DL3 (entire extracellular domain, produced in E. coli) (human) (UniProt P43628); assay: Biacore, immobilized KIR2DL3; second Ab GL183 injected after first Ab 1-7F9
[3] = target: recombinant soluble KIR2DL3 (entire extracellular domain, produced in E. coli) (human) (UniProt P43628); assay: Biacore, immobilized KIR2DL3; second Ab GL183 injected after first Ab 1-6F1
[4] = target: recombinant soluble KIR2DL3 (entire extracellular domain, produced in E. coli) (human) (UniProt P43628); assay: Biacore, immobilized KIR2DL3; second Ab GL183 alone (field of first Ab 1-4F1)
[5] = target: recombinant soluble KIR2DL3 (entire extracellular domain, produced in E. coli) (human) (UniProt P43628); assay: Biacore, immobilized KIR2DL3; second Ab GL183 alone (field of first Ab 1-7F9)
[6] = target: recombinant soluble KIR2DL3 (entire extracellular domain, produced in E. coli) (human) (UniProt P43628); assay: Biacore, immobilized KIR2DL3; second Ab GL183 alone (field of first Ab 1-6F1)
[7] = target: recombinant soluble KIR2DL3 (entire extracellular domain, produced in E. coli) (human) (UniProt P43628); assay: Biacore competition, immobilized KIR2DL3; first Ab gl183, competitor (second Ab) 1-4F1; set-up: concentration or dose not given beside the values
[8] = target: recombinant soluble KIR2DL3 (entire extracellular domain, produced in E. coli) (human) (UniProt P43628); assay: Biacore competition, immobilized KIR2DL3; first Ab gl183, competitor (second Ab) 1-6F1; set-up: concentration or dose not given beside the values
[9] = target: recombinant soluble KIR2DL3 (entire extracellular domain, produced in E. coli) (human) (UniProt P43628); assay: Biacore competition, immobilized KIR2DL3; first Ab gl183, competitor (second Ab) 1-7F9; set-up: concentration or dose not given beside the values
[10] = target: recombinant soluble KIR2DL3 (entire extracellular domain, produced in E. coli) (human) (UniProt P43628); assay: Biacore competition, immobilized KIR2DL3; first Ab gl183, competitor (second Ab) DF200; set-up: concentration or dose not given beside the values
[11] = target: recombinant soluble KIR2DL3 (entire extracellular domain, produced in E. coli) (human) (UniProt P43628); assay: Biacore competition, immobilized KIR2DL3; first Ab gl183, competitor (second Ab) Pan2D; set-up: concentration or dose not given beside the values
[12] = target: recombinant soluble KIR2DL3 (entire extracellular domain, produced in E. coli) (human) (UniProt P43628); assay: Biacore, immobilized KIR2DL3; second Ab DF200 injected after first Ab 1-4F1
[13] = target: recombinant soluble KIR2DL3 (entire extracellular domain, produced in E. coli) (human) (UniProt P43628); assay: Biacore, immobilized KIR2DL3; second Ab DF200 injected after first Ab 1-7F9
[14] = target: recombinant soluble KIR2DL3 (entire extracellular domain, produced in E. coli) (human) (UniProt P43628); assay: Biacore, immobilized KIR2DL3; second Ab DF200 injected after first Ab 1-6F1
[15] = target: recombinant soluble KIR2DL3 (entire extracellular domain, produced in E. coli) (human) (UniProt P43628); assay: Biacore, immobilized KIR2DL3; second Ab DF200 injected after first Ab 1-6F5
[16] = target: recombinant soluble KIR2DL3 (entire extracellular domain, produced in E. coli) (human) (UniProt P43628); assay: Biacore, immobilized KIR2DL3; second Ab DF200 alone (field of first Ab 1-4F1)
[17] = target: recombinant soluble KIR2DL3 (entire extracellular domain, produced in E. coli) (human) (UniProt P43628); assay: Biacore, immobilized KIR2DL3; second Ab DF200 alone (field of first Ab 1-7F9)
[18] = target: recombinant soluble KIR2DL3 (entire extracellular domain, produced in E. coli) (human) (UniProt P43628); assay: Biacore, immobilized KIR2DL3; second Ab DF200 alone (field of first Ab 1-6F1)
[19] = target: recombinant soluble KIR2DL3 (entire extracellular domain, produced in E. coli) (human) (UniProt P43628); assay: Biacore, immobilized KIR2DL3; second Ab DF200 alone (field of first Ab 1-6F5)
[20] = target: recombinant soluble KIR2DL3 (entire extracellular domain, produced in E. coli) (human) (UniProt P43628); assay: Biacore competition, immobilized KIR2DL3; first Ab DF200, competitor (second Ab) 1-4F1; set-up: concentration or dose not given beside the values
[21] = target: recombinant soluble KIR2DL3 (entire extracellular domain, produced in E. coli) (human) (UniProt P43628); assay: Biacore competition, immobilized KIR2DL3; first Ab DF200, competitor (second Ab) 1-6F1; set-up: concentration or dose not given beside the values
[22] = target: recombinant soluble KIR2DL3 (entire extracellular domain, produced in E. coli) (human) (UniProt P43628); assay: Biacore competition, immobilized KIR2DL3; first Ab DF200, competitor (second Ab) 1-6F5; set-up: concentration or dose not given beside the values
[23] = target: recombinant soluble KIR2DL3 (entire extracellular domain, produced in E. coli) (human) (UniProt P43628); assay: Biacore competition, immobilized KIR2DL3; first Ab DF200, competitor (second Ab) 1-7F9; set-up: concentration or dose not given beside the values
[24] = target: recombinant soluble KIR2DL3 (entire extracellular domain, produced in E. coli) (human) (UniProt P43628); assay: Biacore competition, immobilized KIR2DL3; first Ab DF200, competitor (second Ab) GL183; set-up: concentration or dose not given beside the values
[25] = target: recombinant soluble KIR2DL3 (entire extracellular domain, produced in E. coli) (human) (UniProt P43628); assay: Biacore competition, immobilized KIR2DL3; first Ab DF200, competitor (second Ab) Pan2D; set-up: concentration or dose not given beside the values
[26] = target: recombinant soluble KIR2DL1 (entire extracellular domain, produced in E. coli) (human) (UniProt P43626); assay: Biacore SPR, KIR2DL1 immobilized on CM5, antibody as analyte (bivalent binding), Example 3
[27] = target: recombinant soluble KIR2DL3 (entire extracellular domain, produced in E. coli) (human) (UniProt P43628); assay: Biacore SPR, KIR2DL3 immobilized on CM5, antibody as analyte (bivalent binding), Example 3
[28] = target: T1, KIR2DS3 on transfected cells (human, UniProt Q14952 22-304); assay: flow cytometry on cells transfected with KIR2DS3 (Figure 16)
T1 construct: whole, on cells
T1 sequence (Q14952 22-304): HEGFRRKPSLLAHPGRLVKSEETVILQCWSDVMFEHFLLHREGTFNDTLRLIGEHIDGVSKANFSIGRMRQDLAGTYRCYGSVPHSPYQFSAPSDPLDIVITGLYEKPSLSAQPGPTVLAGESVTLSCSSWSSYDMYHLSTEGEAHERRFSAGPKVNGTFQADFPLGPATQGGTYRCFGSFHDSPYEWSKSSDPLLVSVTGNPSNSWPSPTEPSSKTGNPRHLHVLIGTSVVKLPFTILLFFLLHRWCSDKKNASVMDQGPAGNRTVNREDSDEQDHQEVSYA

[29] = target: recombinant soluble KIR2DL3 (entire extracellular domain, produced in E. coli) (human) (UniProt P43628); assay: Biacore, immobilized KIR2DL3; second Ab Pan2D injected after first Ab 1-4F1
[30] = target: recombinant soluble KIR2DL3 (entire extracellular domain, produced in E. coli) (human) (UniProt P43628); assay: Biacore, immobilized KIR2DL3; second Ab Pan2D injected after first Ab 1-7F9
[31] = target: recombinant soluble KIR2DL3 (entire extracellular domain, produced in E. coli) (human) (UniProt P43628); assay: Biacore, immobilized KIR2DL3; second Ab Pan2D injected after first Ab 1-6F1
[32] = target: recombinant soluble KIR2DL3 (entire extracellular domain, produced in E. coli) (human) (UniProt P43628); assay: Biacore, immobilized KIR2DL3; second Ab Pan2D alone (field of first Ab 1-4F1)
[33] = target: recombinant soluble KIR2DL3 (entire extracellular domain, produced in E. coli) (human) (UniProt P43628); assay: Biacore, immobilized KIR2DL3; second Ab Pan2D alone (field of first Ab 1-7F9)
[34] = target: recombinant soluble KIR2DL3 (entire extracellular domain, produced in E. coli) (human) (UniProt P43628); assay: Biacore, immobilized KIR2DL3; second Ab Pan2D alone (field of first Ab 1-6F1)
[35] = target: recombinant soluble KIR2DL3 (entire extracellular domain, produced in E. coli) (human) (UniProt P43628); assay: Biacore, immobilized KIR2DL3; second Ab Pan2D alone (field of first Ab 1-6F5)

## GL183 (antibody)
[1]
  RU of second antibody after first antibody (RU2): 330 RU
[2]
  RU of second antibody after first antibody (RU2): 200 RU
[3]
  RU of second antibody after first antibody (RU2): 570 RU
[4]
  RU of second antibody alone (RU1): 1240 RU
[5]
  RU of second antibody alone (RU1): 800 RU
[6]
  RU of second antibody alone (RU1): 620 RU
[7]
  % inhibition of second antibody binding: 75%
[8]
  % inhibition of second antibody binding: 18%
[9]
  % inhibition of second antibody binding: 76%
[10]
  % inhibition of second antibody binding: 8%
[11]
  % inhibition of second antibody binding: 40%

## murine monoclonal antibody DF200
[12]
  RU of second antibody after first antibody (RU2): 210 RU
[13]
  RU of second antibody after first antibody (RU2): 450 RU
[14]
  RU of second antibody after first antibody (RU2): 760 RU
[15]
  RU of second antibody after first antibody (RU2): 760 RU
[16]
  RU of second antibody alone (RU1): 1140 RU
[17]
  RU of second antibody alone (RU1): 770 RU
[18]
  RU of second antibody alone (RU1): 790 RU
[19]
  RU of second antibody alone (RU1): 800 RU
[20]
  % inhibition of second antibody binding: 75%
[21]
  % inhibition of second antibody binding: 16%
[22]
  % inhibition of second antibody binding: 4%
[23]
  % inhibition of second antibody binding: 62%
[24]
  % inhibition of second antibody binding: 20%
[25]
  % inhibition of second antibody binding: 75%
[26]
  Kd: 11 nM
[27]
  Kd: 2 nM

B1: murine monoclonal antibody NKVSF1 (Pan2D) (antibody, V domains shown)
VH: EVQLQQSGTVLARPGASVKMSCKASGYTFTSYWMHWMKQRPGQGLEWIGTIYPGNSDTNYNQKFKGKAKLTAVTSTNTAYMELSSLTNEDSAVYYCSRPTTATRSSAMDYWGQGTSVTVSS
VL: QIVLTQSPASMSASLGERVTMTCTASSSVSSSYLYWYQQKPGSSPKLWIYSTSNLASGVPARFSGSGSGTSYSLTISSMEAEDAATYYCHQYHRSPPTFGGGTKLEIKR
notes: Mouse mAb, bought from Serotec, cat
[28]
  binding result: no binding (tested: 1 μg/ml)
[29]
  RU of second antibody after first antibody (RU2): 890 RU
[30]
  RU of second antibody after first antibody (RU2): 830 RU
[31]
  RU of second antibody after first antibody (RU2): 1090 RU
[32]
  RU of second antibody alone (RU1): 2400 RU
[33]
  RU of second antibody alone (RU1): 870 RU
[34]
  RU of second antibody alone (RU1): 990 RU
[35]
  RU of second antibody alone (RU1): 990 RU

B2: human monoclonal antibody 1-7F9 (antibody, human IgG4, kappa, V domains shown)
VH: QVQLVQSGAEVKKPGSSVKVSCKASGGTFSFYAISWVRQAPGQGLEWMGGFIPIFGAANYAQKFQGRVTITADESTSTAYMELSSLRSDDTAVYYCARIPSGSYYYDYDMDVWGQGTTVTVSS
VL: EIVLTQSPVTLSLSPGERATLSCRASQSVSSYLAWYQQKPGQAPRLLIYDASNRATGIPARFSGSGSGTDFTLTISSLEPEDFAVYYCQQRSNWMYTFGQGTKLEIKR
notes: also called HuKIR 1-7F9; mAb 1-7F9
[28]
  binding result: no binding (tested: 1 μg/ml)
